# In patent publication US20230322893A1, “CD47 BINDER AND LIPOSOME COMPLEX FOR CANCER TREATMENT” (priority 2020, published 2023):
# Target: recombinant CD47 protein (Homo sapiens, UniProt Q08722)
# Assay: SPR, CD47 conjugated to CM5 chip by EDC-NHS
# Assay type: binding
# Details: CM5 chip, CD47 250 RU, 30 µL/minutes
# Experimental: Specifically, the recombinant CD47 protein was conjugated to the surface of the CM5 chip by a target SPR reaction of 250 RU through an EDC-NHS reaction to be used, and for HBS-P, the sensogram obtained through a process of association for 3 minutes and dissociation for 10 minutes at a flow rate of 30 µL/minutes was analyzed with the BiaEvaluation software using a 1:1 binding model and global fitting.
# recombinant CD47 protein, sequence (Q08722 19-323): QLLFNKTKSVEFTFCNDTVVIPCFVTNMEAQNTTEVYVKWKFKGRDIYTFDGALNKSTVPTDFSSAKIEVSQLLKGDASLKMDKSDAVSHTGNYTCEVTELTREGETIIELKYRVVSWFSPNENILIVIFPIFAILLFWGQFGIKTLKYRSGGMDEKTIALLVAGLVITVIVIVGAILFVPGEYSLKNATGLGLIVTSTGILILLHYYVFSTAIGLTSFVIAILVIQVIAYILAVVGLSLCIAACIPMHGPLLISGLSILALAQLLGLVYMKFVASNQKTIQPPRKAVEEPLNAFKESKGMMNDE
substance,measurement,value
"Sirpα: pure Sirpα (SEQ ID NO: 25), water-soluble domain of the original CD47 ligand [reference compound]",ka,610000 M⁻¹ s⁻¹
same,kd,0.37 s⁻¹
